Laboratory results published in patent publication US6274703.
Where two headings read alike, the source gives them in different places.

Experiments:
[1] = molecular target: TIMP-2 (Homo sapiens (Human)) (UniProt P16035); assay: self competition with 125I-labelled WT GelA-CTD on TIMP-2 coated wells
[2] = molecular target: TIMP-2 (Homo sapiens (Human)) (UniProt P16035); assay: competition with 125I-labelled WT GelA-CTD on TIMP-2 coated wells; mutant Ki over WT Kd
[3] = molecular target: TIMP-2 (Homo sapiens (Human)) (UniProt P16035); assay: competition with 125I-labelled WT GelA-CTD on TIMP-2 coated wells; against WT
[4] = molecular target: TIMP-2 (Homo sapiens (Human)) (UniProt P16035); assay: as above; remark: listed apart in the source

FLAG GelA-CTD fusion protein, wild type (from UniProt P08253)
Ki/Kd [1]: 1

FLAG GelA-CTD mutant #234 Arg^590→Ala (from UniProt P08253)
Ki/Kd [2]: > 500 | fold loss in TIMP-2 binding [3]: > 100 fold | fold loss in TIMP-2 binding [4]: > 100 fold

FLAG GelA-CTD double mutant #46 Glu^641→Ala + Gly^651→Arg (from UniProt P08253)
Ki/Kd [2]: > 500 | fold loss in TIMP-2 binding [4]: > 100 fold

FLAG GelA-CTD mutant #259 Asn^611→Ala (from UniProt P08253)
Ki/Kd [2]: 3

FLAG GelA-CTD mutant #247 Lys^646→Ala (from UniProt P08253)
Ki/Kd [2]: > 500 | fold loss in TIMP-2 binding [3]: > 100 fold

FLAG GelA-CTD mutant #257 Gly^651→Ala (from UniProt P08253)
Ki/Kd [2]: 3

FLAG GelA-CTD mutant #250 Trp^574→Ala (from UniProt P08253)
Ki/Kd [2]: > 500

FLAG GelA-CTD mutant #31 Lys^579→Ala (from UniProt P08253)
Ki/Kd [2]: 6

FLAG GelA-CTD mutant #229 Lys^576→Ala (from UniProt P08253)
Ki/Kd [2]: > 500 | fold loss in TIMP-2 binding [3]: > 100 fold

FLAG GelA-CTD mutant #39 Lys^604→Ala (from UniProt P08253)
Ki/Kd [2]: 25

FLAG GelA-CTD mutant #41 Asp^615→Ala (from UniProt P08253)
Ki/Kd [2]: 300 | fold loss in TIMP-2 binding [4]: > 100 fold

FLAG GelA-CTD mutant #28 Asp^569→Ala (from UniProt P08253)
Ki/Kd [2]: 8

FLAG GelA-CTD mutant #252 Tyr^636→Ala (from UniProt P08253)
Ki/Kd [2]: 10

FLAG GelA-CTD mutant #255 Phe^650→Ala (from UniProt P08253)
Ki/Kd [2]: 8

FLAG GelA-CTD mutant #258 Asp^656→Ala (from UniProt P08253)
Ki/Kd [2]: 10
